Reference: paper PMC2716403 (Journal of molecular biology, 2009)
Like-named read-outs stand apart in the source and are kept apart here.

B1: Nup153-ZnF4D8Q (domain or fragment)
chain: GPLGSGSWQCEVCLVQNKADSTKCIACESAKPGTKSEFKGFGT
B2: Nup153-ZnF1 (domain or fragment)
chain: AGSSWQCDTCLLQNKVTDNKCIACQAAKL
B3: Nup153-ZnF4 (domain or fragment)
chain: GSWDCEVCLVQNKADSTKCIACESAKPGTKSEFKGFGT
B4: Nup358-ZnF12 (domain or fragment)
chain: KEGSWWHCNSCSLKNASTAKKCVSCQNLNPSNKELVGPPLAETVFTPKTSPENVQDRFALVTPKKEGHWDCSICLVRNEPTVSRCIACQNTKSA
B5: Nup153-ZnF3 (domain or fragment)
chain: VGSWECPVCCVSNKAEDSRCVSCTSEKP
B6: Nup153-ZnF2 (domain or fragment)
chain: GTWDCDTCLVQNKPEAVKCVACETPKPG

Legend:
Test in all cases: ITC
[1] = molecular target: RanGDP (wild-type Ran, GDP-bound) (Rattus norvegicus, UniProt P62828 1-216)
[2] = molecular target: T1, RanGDP (wild-type Ran, GDP-bound) (Rattus norvegicus, UniProt P62828 1-216); remark: listed apart in the source
[3] = molecular target: T1, RanGDP (wild-type Ran, GDP-bound); remark: listed apart in the source

Row | Binder | Kd [2] [µM] | Kd [3] [µM] | other results
1 | B1 | – | – | Kd [1]: 3 µM
2 | B2 | 6 | – | –
3 | B3 | – | 47 | –
4 | B4 | – | 15 | –
5 | B5 | 7 | – | –
6 | B6 | – | 49 | –
